Changes are numbered by the printed parent chain.

Assay in all cases: SEC
Data set [1] concerns the molecule itself.
The target in data set [2] is T1, ACAD9-His6 R469W (human, UniProt Q9H845 38-621, R469W).
T1 sequence: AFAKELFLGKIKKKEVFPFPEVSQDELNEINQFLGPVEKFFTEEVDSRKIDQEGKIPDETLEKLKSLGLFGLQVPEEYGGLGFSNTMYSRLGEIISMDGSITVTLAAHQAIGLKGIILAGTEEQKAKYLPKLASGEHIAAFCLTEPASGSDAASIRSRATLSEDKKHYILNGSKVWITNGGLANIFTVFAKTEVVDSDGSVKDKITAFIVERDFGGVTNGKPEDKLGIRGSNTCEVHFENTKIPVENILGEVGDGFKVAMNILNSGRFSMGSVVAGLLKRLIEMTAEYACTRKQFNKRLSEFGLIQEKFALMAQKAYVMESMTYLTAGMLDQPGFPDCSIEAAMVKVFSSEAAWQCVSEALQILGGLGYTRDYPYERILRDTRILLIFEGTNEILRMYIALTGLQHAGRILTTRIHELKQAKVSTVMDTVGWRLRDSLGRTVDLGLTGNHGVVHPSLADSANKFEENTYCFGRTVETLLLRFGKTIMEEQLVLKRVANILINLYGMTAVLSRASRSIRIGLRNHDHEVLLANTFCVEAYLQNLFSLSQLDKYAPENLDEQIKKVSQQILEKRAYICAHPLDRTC

Data set [3] deals with T2, ACAD9 (non-tagged wild type) (human, UniProt Q9H845 38-621).
T2 sequence: T1 sequence with W432R

B1: His6-ECSIT (mature human mitochondrial ECSIT with N-terminal His tag) (natural protein)
chain: SSEQSLVPSPPEPRQRPTKALVPFEDLFGQAPGGERDKASFLQTVQKFAEHSVRKRGHIDFIYLALRKMREYGVERDLAVYNQLLNIFPKEVFRPRNIIQRIFVHYPRQQECGIAVLEQMENHGVMPNKETEFLLIQIFGRKSYPMLKLVRLKLWFPRFMNVNPFPVPRDLPQDPVELAMFGLRHMEPDLSARVTIYQVPLPKDSTGAADPPQPHIVGIQSPDQQAALARHNPARPVFVEGPFSLWLRNKCVYYHILRADLLPPEEREVEETPEEWNLYYPMQLDLEYVRSGWDNYEFDINEVEEGPVFAMCMAGAHDQATMAKWIQGLQETNPTLAQIPVVFRLAGSTRELQTSSAGLEEPPLPEDHQEEDDNLQRQQQGQS
Usually stoichiometry N stands for the number of molecules, sites or subunits per partner or assembly. Take B1: the results for the “stoichiometry N” value in data set [1] and in data set [3] were 2 and 1 ECSIT monomer per ACAD9 monomer (2:2), respectively. Moreover, the binding result in data set [2] was “binds”.

These data come from publication PMC8497999 (iScience, 2021).
